{"source": "paper PMC3597819", "about": "(The Journal of Biological Chemistry, 2013)", "proteins": {"B1": {"name": "KLHL11 BTB-BACK domains (residues 67-340) (domain or fragment, human, UniProt Q9NVR0 67-340, looked up)", "chain": "EAEDFECSSHCSELSWRQNEQRRQGLFCDITLCFGGAGGREFRAHRSVLAAATEYFTPLLSGQFSESRSGRVEMRKWSSEPGPEPDTVEAVIEYMYTGRIRVSTGSVHEVLELADRFLLIRLKEFCGEFLKKKLHLSNCVAIHSLAHMYTLSQLALKAADMIRRNFHKVIQDEEFYTLPFHLIRDWLSDLEITVDSEEVLFETVLKWVQRNAEERERYFEELFKLLRLSQMKPTYLTRHVKPERLVANNEVCVKLVADAVERHALRAENIQSGT"}}, "target": "the molecule itself", "experiment": "crystal structure"}
{"protein": "B1", "values": [{"measurement": "stoichiometry N", "value": 2}]}
